PMC6212398, “Competing protein-protein interactions regulate binding of Hsp27 to its client protein tau” (Nature Communications, 2018)

Columns and labels:
Hsp27 ΔNTD GPG (human) = Hsp27 ΔNTD GPG (human) (UniProt P04792); assay: not stated; oligomeric state of Hsp27 GPG, ΔNTD and ΔNTD GPG (Supplementary Figure 8B, 8C); method not given
[1] = target: Hsp27 alpha-crystallin domain (ACD, residues Q80–S176) (human) (UniProt P04792); assay: ITC; K18 tau with Hsp27 ACD (Supplementary Figure 3B); limited by solubility
Chain of Hsp27 alpha-crystallin domain (ACD, residues Q80–S176) (human) (P04792 80-176): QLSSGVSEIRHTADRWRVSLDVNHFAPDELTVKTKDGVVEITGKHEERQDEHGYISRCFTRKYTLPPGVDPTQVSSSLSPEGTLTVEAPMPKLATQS

[2] = target: Hsp27 alpha-crystallin domain (ACD, residues Q80–S176) (human) (UniProt P04792); assay: ELISA; competitive ELISA of K18 tau on Hsp27 ACD (Supplementary Figure 3A); format not told

Substance | stoichiometry N (Hsp27 ΔNTD GPG (human)) | Kd [1] | IC50 [2]
Hsp27 ΔNTD GPG (from UniProt P04792 80-205) (domain or fragment) | 2 |  | 
K18 tau (the four microtubule-binding repeats) (domain or fragment) |  | > 100 µM | > 100 µM
